Residue numbers refer to the chain shown, from its start.
B1: 376W: single substitution 376W in SEQ ID NO:2 (protein)
chain: MGPTPTATAAGAAVAAASAAEQAAFRLVGHRNFVRFNPRSDRFQTLAFHHVELWCADAASAAGRFSFALGVPLAARSDLSTGNSAHASLLLRSGSLSLLFTAPYAHGADAATAALPSFSAAAARRFAADHGLAVRAVALRVADAEDAFRASVAAGARPAFGPVDLGRGFRLAEVELYGDVVLRYVSYPDGAAGEPFLPGFEGVASPGAADYGLSRFDHIVGNVPELAPAAAYMAGFTGFHEFAEFTTEDVGTTESGLNSMALANNSENVLLPLNEPVHGTKRRSQIQTFLDHHGGPGVQHIALASDDVLRTLREMRARSAMGGFEFLPPPLSDYYDGVRRCAGDVLTEAQINECQELGVMVDRDDQGVLLQIFTKWVGDRPTFFLEIIQRIGCMEKDEKGQEYQKGGCGGFGKGNFGQLFKSIEDYEKSLEAKQAAAAATAQGS
modifications: Zea mays variant form created by artificial means.
B2: 189P: single substitution 189P in SEQ ID NO:2 (protein)
chain: B1 chain with D189P, W376P
modifications: Zea mays variant form created by artificial means.
B3: 360L: single substitution 360L in SEQ ID NO:2 (protein)
chain: B1 chain with M360L, W376P
modifications: Zea mays variant form created by artificial means.
B4: 191L: single substitution 191L in SEQ ID NO:2 (protein)
chain: B1 chain with A191L, W376P
modifications: Zea mays variant form created by artificial means.
B5: 431F: single substitution 431F in SEQ ID NO:2 (protein)
chain: B1 chain with W376P, E431F
modifications: Zea mays variant form created by artificial means.
B6: 205T: single substitution 205T in SEQ ID NO:2 (protein)
chain: B1 chain with S205T, W376P
modifications: Zea mays variant form created by artificial means.
B7: 390N: single substitution 390N in SEQ ID NO:2 (protein)
chain: B1 chain with W376P, R390N
modifications: Zea mays variant form created by artificial means.
B8: 227G: single substitution 227G in SEQ ID NO:2 (protein)
chain: B1 chain with A227G, W376P
modifications: Zea mays variant form created by artificial means.

Test system: 4-hydroxyphenylpyruvate dioxygenase (HPPD)
Assay: Insensitivity parameter (ON × OFF) and trait fitness (ON × OFF × kcat/KM or × kcat)
Format: biochemical, Z. mays
Details: DKN (diketonitrile form of isoxaflutole)
How it was run: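 Trait fitness combines catalysis and insensitivity as kcat/KM × ON rate ratio × OFF rate ratio. The insensitivity parameter is the product of ON and OFF rate ratios, used in place of KD because the ON rate ratio is inverse.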

Molecule	Insensitivity parameter, ON × OFF
B1	0.37
B2	0.32
B3	0.34
B4	0.38
B5	0.26
B6	0.30
B7	0.29
B8	0.26

Same assay, conditions: Mesotrione; Table 6

Molecule	Insensitivity parameter, ON × OFF
B1	0.39
B2	0.51
B3	0.51
B4	0.45
B5	0.53
B6	0.47
B7	0.45
B8	0.52

Same assay, conditions: Sulcotrione

Molecule	Insensitivity parameter, ON × OFF
B1	0.16
B2	0.62
B3	0.63
B4	0.56
B5	0.59
B6	0.60
B7	0.58
B8	0.63

Same assay, conditions: Table 5; tembotrione

Molecule	ON × OFF × kcat, Value
B1	5.42
B2	4.31
B3	4.41
B4	3.35
B5	3.61
B6	3.72
B7	5.00
B8	4.09

Same assay, conditions: Table 5; tembotrione; fold vs maize wild type HPPD

Molecule	ON × OFF × kcat, Fold vs wt	ON × OFF, fold vs wt
B1	5.07	46.0
B2	4.02	32.3
B3	4.12	32.6
B4	3.13	30.5
B5	3.37	24.5
B6	3.48	29.0
B7	4.67	32.4
B8	3.83	23.2

Same assay, conditions: Table 5; tembotrione; insensitivity parameter

Molecule	ON × OFF (parameters with tembotrione)
B1	0.23
B2	0.16
B3	0.17
B4	0.16
B5	0.13
B6	0.15
B7	0.17
B8	0.12

Same assay, conditions: Tembotrione

Molecule	Insensitivity parameter, ON × OFF
B1	0.31
B2	0.25
B3	0.25
B4	0.33
B5	0.19
B6	0.22
B7	0.20
B8	0.22

Same assay, conditions: Topramezon

Molecule	Insensitivity parameter, ON × OFF
B1	0.32
B2	0.31
B3	0.32
B4	0.37
B5	0.27
B6	0.29
B7	0.27
B8	0.28

Test system: 4-hydroxyphenylpyruvate dioxygenase (HPPD)
Assay: OFF rate ratio: release of inhibitor from pre-formed enzyme-inhibitor complex
Format: biochemical, Z. mays
Details: Table 5; tembotrione
How it was run: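 Inhibitor release from pre-formed complex (enzyme 7.2 μM, inhibitor 8 μM, 1 h RT) tracked as accelerating HPPD activity at 320 nm over 12 min, coupled via 50 nM HGD with 100 μM HPP at pH 7. OFF rate ratio: steady-state velocity relative to uninhibited initial velocity.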

Molecule	OFF ratio (parameters with tembotrione)
B1	0.34
B2	0.22
B3	0.22
B4	0.20
B5	0.16
B6	0.20
B7	0.22
B8	0.15

Test system: 4-hydroxyphenylpyruvate dioxygenase (HPPD)
Assay: Estimate of kcat from initial rate at saturating hydroxyphenylpyruvate without inhibitor (ON rate ratio assay)
Format: biochemical, Z. mays
Details: Table 5; single substitutions in Round 7 variant 9070 (SEQ ID NO:2); estimate from initial rate at saturating hydroxyphenylpyruvate without inhibitor
How it was run: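 kcat was estimated from the initial reaction rate with known enzyme level (60 or 120 nM HPPD). Hydroxyphenylpyruvate was at a saturating 100 μM, with no inhibitor present.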

Molecule	kcat
B1	23.1 min⁻¹
B2	26.2 min⁻¹
B3	26.5 min⁻¹
B4	21.5 min⁻¹
B5	28.9 min⁻¹
B6	25.1 min⁻¹
B7	30.3 min⁻¹
B8	34.6 min⁻¹

Test system: 4-hydroxyphenylpyruvate dioxygenase (HPPD)
Assay: ON rate ratio: HPPD reaction rate with vs without inhibitor in the 70 to 90 second interval
Format: biochemical, Z. mays
Details: Table 5; tembotrione
How it was run: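 Indicator of inhibitor on-rate: reaction velocity in the 70 to 90 second window with 4 μM inhibitor divided by that without. Reactions contained 100 μM HPP and 60 or 120 nM HPPD; slower binding gives a larger ratio.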

Molecule	ON ratio (parameters with tembotrione)
B1	0.68
B2	0.76
B3	0.77
B4	0.77
B5	0.80
B6	0.74
B7	0.75
B8	0.79

Test system: 4-hydroxyphenylpyruvate dioxygenase (HPPD)
Assay: HPPD activity coupled assay with HGD; substrate saturation kinetic parameters (kcat, KM)
Format: biochemical, Z. mays
Details: Table 6
How it was run: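 Coupled continuous assay: His-tagged HPPD (5 to 240 nM, E. coli-expressed, Ni-NTA-purified) with 50 nM P. aeruginosa HGD in 25 mM Hepes pH 7, 2 mM ascorbate, 10 μM FeSO4; maleylacetoacetate followed at 320 nm. KM and Vmax from Lineweaver-Burke fits over 3.33–100 μM HPP.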

Molecule	Km
B1	5510 nM
B2	3350 nM
B3	1710 nM
B4	2740 nM
B5	1770 nM
B6	2720 nM
B7	2860 nM
B8	2610 nM

Same assay, conditions: Table 6; single substitutions in SEQ ID NO:2

Molecule	kcat
B1	36.1 min⁻¹
B2	41.8 min⁻¹
B3	32.6 min⁻¹
B4	32.9 min⁻¹
B5	30.8 min⁻¹
B6	34.4 min⁻¹
B7	50.2 min⁻¹
B8	45.3 min⁻¹

Reference: patent US11015206B2, “Compositions and methods comprising sequences having hydroxyphenylpyruvate dioxygenase (HPPD) activity” (PIONEER HI-BRED INTERNATIONAL, INC., priority 2014, dated 2021)
